Consider 2 compounds from PMC8292354, “Molecular insights into the endoperoxide formation by Fe(II)/α-KG-dependent oxygenase NvfI” (Nature Communications, 2021).

One data set concerns the target T1, NvfI (Aspergillus novofumigatus, UniProt A0A2I1BSX0).
T1 construct: recombinant from pET28a in E. coli Rosetta 2(DE3) pLysS, Ni-NTA purified, MonoQ and Superdex 200; monomer in solution, apparent 34 kDa
Kind of data set: X-ray crystal structure, […] Å. The format is binding. To be noted: bidentate Fe ligand; binary (state I, monomer B) and ternary complex with asnovolin A (state III, monomer A).

Data set [1] relates to COC(=O)[C@@H]1C(=O)C(C)=C2O[C@@]3(C[C@]2(C)[C@H]1C)[C@@H](C)CC[C@H]1C(C)(C)OC(=O)CC[C@@]13C. The data set can be described thus: purified protein. To be noted: 50 mM HEPES pH 7.5, 1 μM FeSO4, 500 μM ascorbate, 500 μM α-KG, 30 °C, 2 min, 0.1 μM enzyme.

T1 sequence (A0A2I1BSX0 whole entry): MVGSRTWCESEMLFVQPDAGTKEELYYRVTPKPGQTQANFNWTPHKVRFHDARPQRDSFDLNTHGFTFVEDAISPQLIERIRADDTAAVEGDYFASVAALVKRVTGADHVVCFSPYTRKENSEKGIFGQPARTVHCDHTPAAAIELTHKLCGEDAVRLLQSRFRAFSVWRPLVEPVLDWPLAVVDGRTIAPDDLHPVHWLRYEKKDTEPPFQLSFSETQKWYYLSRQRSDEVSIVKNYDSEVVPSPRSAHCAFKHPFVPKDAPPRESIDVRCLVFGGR

On to `O=C(O)CCC(=O)C(=O)O` [α-KG], for which the “X-ray crystal structure, 1.9 Å” value on NvfI is “octahedral iron-center is coordinated by the bidentate α-KG and a water molecule”.
Usually Km stands for the concentration of substrate that gives half-maximal velocity. Usually kcat stands for the maximal rate divided by the concentration of active sites. For the compound “NvfI (Aspergillus novofumigatus IBT 16806)”, in data set [1], the Km was determined as 25.9 ± 7.2 µM and the turnover number (kcat) was 0.29 ± 0.04 s⁻¹.
